# Source: patent publication US20090298083
# Columns and labels:
# [1] = target: GST-Pax3 non-phosphorylated (UniProt P23760); assay: EMSA; conditions: unphosphorylated; value inferred from nearly 10-fold increase on CKII phosphorylation
# [2] = target: GST-Pax3 phosphorylated at Ser205 by CKII (UniProt P23760); assay: EMSA; conditions: Pax3 phosphorylated at Ser205 by CKII; reference for maximal binding; nearly 10-fold more binding than unphosphorylated
# [3] = target: FLAG-Pax3 (UniProt P23760); assay: cell_activity; conditions: CAT assay, proliferating mouse primary myoblasts; activity completely lost after 12 h differentiation
# Chain of FLAG-Pax3 (P23760 other isoform, or with tags, fused parts or gaps): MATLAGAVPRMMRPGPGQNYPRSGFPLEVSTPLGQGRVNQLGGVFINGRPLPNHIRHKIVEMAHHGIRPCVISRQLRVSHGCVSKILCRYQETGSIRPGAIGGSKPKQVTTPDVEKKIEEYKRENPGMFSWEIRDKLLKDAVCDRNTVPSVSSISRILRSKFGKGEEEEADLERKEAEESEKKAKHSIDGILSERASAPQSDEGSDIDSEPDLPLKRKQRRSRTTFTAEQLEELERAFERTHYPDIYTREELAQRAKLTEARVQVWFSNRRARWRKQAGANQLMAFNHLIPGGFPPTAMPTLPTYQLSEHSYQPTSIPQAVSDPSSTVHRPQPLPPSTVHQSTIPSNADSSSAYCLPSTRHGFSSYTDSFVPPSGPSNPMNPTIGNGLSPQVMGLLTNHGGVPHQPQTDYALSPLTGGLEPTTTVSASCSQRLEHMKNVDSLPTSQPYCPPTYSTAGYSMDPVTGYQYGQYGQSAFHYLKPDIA
# [4] = tested on: FLAG-Pax3-FOXO1 fusion; assay: cell_activity; conditions: CAT assay, proliferating mouse primary myoblasts; no significant change during differentiation
# Chain of GST-Pax3 non-phosphorylated (P23760 other isoform, or with tags, fused parts or gaps): as above
# Chain of GST-Pax3 phosphorylated at Ser205 by CKII (P23760 other isoform, or with tags, fused parts or gaps): as above
Substance,binding signal [1] [%],binding signal [2] [%],activity (fold over background) [3],activity (fold over background) [4]
oligonucleotide with paired- and homeodomain recognition sequences,10,100,,
"(PRS-9)TK-CAT reporter, six tandem repeats of Pax3 paired and homeodomain recognition sequence",,,2,4
